Source: patent US12331106B2, “Anti-angiopoietin-2 antibodies that induce Tie2 activation” (Institute for Basic Science, priority 2018, dated 2025)
Like-named read-outs stand apart in the source and are kept apart here.

What was measured:
hAng2 = biological target: T1, hAng2 (Homo sapiens, UniProt O15123); assay: OCTET affinity of mouse monoclonal anti-Ang2 antibodies against hAng2; settings: hAng2 fixed on AR2G biosensor, 1:1 binding model
T1 sequence (O15123 19-496): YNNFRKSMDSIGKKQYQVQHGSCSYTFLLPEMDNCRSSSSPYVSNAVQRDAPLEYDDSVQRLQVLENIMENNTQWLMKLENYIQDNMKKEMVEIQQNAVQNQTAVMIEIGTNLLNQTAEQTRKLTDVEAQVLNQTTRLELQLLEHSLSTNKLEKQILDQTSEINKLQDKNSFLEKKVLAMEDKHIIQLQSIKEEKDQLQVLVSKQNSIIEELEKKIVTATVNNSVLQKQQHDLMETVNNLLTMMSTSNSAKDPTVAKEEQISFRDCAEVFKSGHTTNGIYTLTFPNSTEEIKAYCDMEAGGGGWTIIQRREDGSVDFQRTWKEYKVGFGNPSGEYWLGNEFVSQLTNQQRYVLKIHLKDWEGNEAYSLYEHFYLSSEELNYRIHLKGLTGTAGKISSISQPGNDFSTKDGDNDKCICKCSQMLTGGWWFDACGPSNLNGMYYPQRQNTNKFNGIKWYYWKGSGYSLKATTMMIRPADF
Description: The affinity of mouse monoclonal antibody against hAng2 was measured using OCTET® system (ForteBio, real-time, label-free bio-layer interferometry system for determination of affinity, kinetics, and concentration). Specifically, buffer and samples were measured in total 200 μl/well using Black 96-well plates (96 well F-type black plates, Greiner). The biosensor used for affinity measurements was hydrated for 10 min before measurement with AR2G tip (ForteBio OCTET®). After the hydration, hAng2 was diluted in 10 mM sodium acetate, pH 6.0 buffer at a concentration of 10 μg/ml, fixed on AR2G biosensor, and blocked with 1M ethanolamine. The mouse monoclonal anti-Ang2 antibodies were diluted to 50, 25, 12.5, 6.25, 3.125, and 0 nM with 1× kinetic buffer, and subjected to association for 300 seconds and dissociation for 900 seconds. For affinity measurement (KD), the association rate (K-on) and dissociation rate (K-off) were analyzed by binding curve (global) and fitted to 1:1 binding model using OCTET® data analysis v9.0.0.10 program.

hAng2-RBD = biological target: T2, hAng2-RBD (Homo sapiens, UniProt O15123); format: binding; settings: for Relative Uptake (Da) Δ: 2C8
T2 construct: made in house; host or cells: HEK293F
T2 sequence (O15123 276-496): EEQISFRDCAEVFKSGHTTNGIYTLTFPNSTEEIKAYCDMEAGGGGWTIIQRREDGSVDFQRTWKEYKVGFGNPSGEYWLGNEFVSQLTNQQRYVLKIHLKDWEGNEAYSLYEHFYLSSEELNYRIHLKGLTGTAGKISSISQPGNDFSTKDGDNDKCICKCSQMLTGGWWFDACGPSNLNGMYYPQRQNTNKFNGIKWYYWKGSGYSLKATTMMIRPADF
Description: The antigenic determinants (epitopes) of hAng2 recognized by mouse monoclonal antibodies, 2C8 and 4B9, were analyzed by HDX-MS (Hydrogen/deuterium exchange-mass spectrometry) technique. HDX-MS analysis methods are described in the following articles; Houde D, Engen J R (2013) Methods Mol. Biol. 988: 269-89 and Houde et al. (2011) J. Pharm. Sci. 100 (6), 2071.
Recombinant hAng2-RBD protein was used to analyze the epitopes of antibodies 2C8 and 4B9. […] The prepared hAng2-RBD/antibody complexes were diluted 15 times with deuterium labeling buffer, labeled at various time, and then quenched with the same volume of quenching buffer. The labeling reaction time was 0 min (undeuterium), 0.33 min, 10 min, 60 min and 240 min. However, in undeuterium condition, the deuterium labeling buffer was replaced with equilibrium buffer and the reaction was immediately stopped with quenching buffer. For mass spectrometry, the deuterium labeled hAng2-RBD/antibody samples were loaded on a pepsin column and peptide digestion was proceeded.
The deuterium uptake difference between hAng2-RBD alone and the hAng2-RBD-antibody complex conditions was comparatively analyzed, and a region showing a distinct decrease in the deuterium uptake is either a peptide to which the antibody binds directly, or a structurally changed region. When the deuterium uptake difference between hAng2-RBD alone and the hAng2-RBD-antibody complex was 0.5-1 Da or more, it was considered significant.
In the case of antibody 4B9, it cannot be ruled out that an undetermined region (residues 25 to 40 of SEQ ID NO: 2) can be included in the scope of the epitope. The epitope analysis results for each antibody are shown in different colors on the 3D structure of hAng2-RBD, which was generated using PyMol software (FIG. 2).

B1: 2C8: mouse monoclonal anti-Ang2 antibody; VH SEQ ID NO: 19, VL SEQ ID NO: 21; hybridoma KCLRF-BP-00417 (antibody, V domains shown)
VH: QVQLQQSGPQLVRPGASVKISCKASGYSFTSYWMHWVKQRPGQGLEWIGMIDPSDSETRLNQKFKDKASLTVDKSSSTAYMQLSSPTSGDSAVYYCARRFYYGSDWYFDVWGAGSTVTVSS
VL: DIVMTQSHKFMSTSVGDRVSITCKASQDVGTAVAWYQQKPGQSPKLLIYWASTRHTGVPDRFTGSGSGTDFTLTISNVQSEDLADYFCQQYSSYPLTFGSGTKLEIK
modifications: Heavy Chain Variable Region; Light Chain Variable Region
notes: mouse monoclonal anti-Ang2 antibody; hybridoma KCLRF-BP-00417
Koff (hAng2): 3.54e-06 s⁻¹
Kon (hAng2): 77800 M⁻¹ s⁻¹
Relative Uptake (Da) Δ (hAng2-RBD; residues 52-60 (SEQ ID NO: 2), exposure time 0.00 min): 0.15 Da
Relative Uptake (Da) Δ (hAng2-RBD; residues 52-60 (SEQ ID NO: 2), exposure time 0.33 min): 0.21 Da
Relative Uptake (Da) Δ (hAng2-RBD; residues 52-60 (SEQ ID NO: 2), exposure time 10.00 min): 0.41 Da
Relative Uptake (Da) Δ (hAng2-RBD; residues 52-60 (SEQ ID NO: 2), exposure time 60.00 min): 0.14 Da
Relative Uptake (Da) Δ (hAng2-RBD; residues 52-60 (SEQ ID NO: 2), exposure time 240.00 min): 0.08 Da
Relative Uptake (Da) Δ (hAng2-RBD; residues 61-77 (SEQ ID NO: 2), exposure time 0.00 min): 0.08 Da
Relative Uptake (Da) Δ (hAng2-RBD; residues 61-77 (SEQ ID NO: 2), exposure time 0.33 min): 1.18 Da
Relative Uptake (Da) Δ (hAng2-RBD; residues 61-77 (SEQ ID NO: 2), exposure time 10.00 min): 1.78 Da
Relative Uptake (Da) Δ (hAng2-RBD; residues 61-77 (SEQ ID NO: 2), exposure time 60.00 min): 1.36 Da
Relative Uptake (Da) Δ (hAng2-RBD; residues 61-77 (SEQ ID NO: 2), exposure time 240.00 min): 1.31 Da
Relative Uptake (Da) Δ (hAng2-RBD; residues 61-78 (SEQ ID NO: 2), exposure time 0.00 min): 0.06 Da
Relative Uptake (Da) Δ (hAng2-RBD; residues 61-78 (SEQ ID NO: 2), exposure time 0.33 min): 1.15 Da
Relative Uptake (Da) Δ (hAng2-RBD; residues 61-78 (SEQ ID NO: 2), exposure time 10.00 min): 1.80 Da
Relative Uptake (Da) Δ (hAng2-RBD; residues 61-78 (SEQ ID NO: 2), exposure time 60.00 min): 1.33 Da
Relative Uptake (Da) Δ (hAng2-RBD; residues 61-78 (SEQ ID NO: 2), exposure time 240.00 min): 1.34 Da
Relative Uptake (Da) Δ (hAng2-RBD; residues 67-77 (SEQ ID NO: 2), exposure time 0.00 min): −0.12 Da
Relative Uptake (Da) Δ (hAng2-RBD; residues 67-77 (SEQ ID NO: 2), exposure time 0.33 min): 0.89 Da
Relative Uptake (Da) Δ (hAng2-RBD; residues 67-77 (SEQ ID NO: 2), exposure time 10.00 min): 1.58 Da
Relative Uptake (Da) Δ (hAng2-RBD; residues 67-77 (SEQ ID NO: 2), exposure time 60.00 min): 1.21 Da
Relative Uptake (Da) Δ (hAng2-RBD; residues 67-77 (SEQ ID NO: 2), exposure time 240.00 min): 1.07 Da
Relative Uptake (Da) Δ (hAng2-RBD; residues 67-78 (SEQ ID NO: 2), exposure time 0.00 min): 0.30 Da
Relative Uptake (Da) Δ (hAng2-RBD; residues 67-78 (SEQ ID NO: 2), exposure time 0.33 min): 0.95 Da
Relative Uptake (Da) Δ (hAng2-RBD; residues 67-78 (SEQ ID NO: 2), exposure time 10.00 min): 1.66 Da
Relative Uptake (Da) Δ (hAng2-RBD; residues 67-78 (SEQ ID NO: 2), exposure time 60.00 min): 1.33 Da
Relative Uptake (Da) Δ (hAng2-RBD; residues 67-78 (SEQ ID NO: 2), exposure time 240.00 min): 1.04 Da
Relative Uptake (Da) Δ (hAng2-RBD; residues 78-84 (SEQ ID NO: 2), exposure time 0.00 min): 0.00 Da
Relative Uptake (Da) Δ (hAng2-RBD; residues 78-84 (SEQ ID NO: 2), exposure time 0.33 min): −0.01 Da
Relative Uptake (Da) Δ (hAng2-RBD; residues 78-84 (SEQ ID NO: 2), exposure time 10.00 min): 0.01 Da
Relative Uptake (Da) Δ (hAng2-RBD; residues 78-84 (SEQ ID NO: 2), exposure time 60.00 min): 0.11 Da
Relative Uptake (Da) Δ (hAng2-RBD; residues 78-84 (SEQ ID NO: 2), exposure time 240.00 min): 0.36 Da
epitope of hAng2-RBD to which the antibody binds (hAng2-RBD; deuterium uptake difference 0.5-1 Da or more considered significant): residues 61 to 78 of SEQ ID NO: 2
